Data reported in PMC7267768, “Three kinds of treatment with Homoharringtonine, Hydroxychloroquine or shRNA and their combination against coronavirus PEDV in vitro” (Virology Journal, 2020).

Target: T1, HR1 peptide of the PEDV spike glycoprotein (optimal focused HR1 domain) (porcine epidemic diarrhea virus (PEDV))
T1 construct: Spike glycoprotein of porcine epidemic diarrhea virus (PEDV), heptad repeat 1; numbers count on: GenBank ALS35469.1; source: synthetic peptide (China Peptides)
T1 peptide: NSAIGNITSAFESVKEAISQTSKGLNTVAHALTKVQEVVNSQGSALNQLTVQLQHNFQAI
Experiment: SEC; HR1 and tHR2 mixed, each at 15 uM, incubated 2 h; Superdex G75, 20 mM Tris-HCl pH 8.0; mass estimated against protein standards
Conditions: both partners purified

B1: truncated HR2 peptide tHR2 of the PEDV spike glycoprotein (1278-1316, 39Aa) (peptide)
peptide: LTGEIADLEQRSESLRNTTEELRSLINNINNTLVDLEWL
notes: Spike glycoprotein of porcine epidemic diarrhea virus (PEDV), truncated heptad repeat 2, residues 1278-1316 (39 residues); the predicted HR2 domain is 1263-1314; numbers count on: GenBank ALS35469.1; source: synthetic peptide (China Peptides)
  stoichiometry N: ~1 tHR2 per HR1 (3:3)
